Measurements taken from the supplement of paper PMC10724198.
± gives the standard deviation of the averaged measurements.

tested on: Saccharomyces cerevisiae; assay: protein stability index of tFT-peptide fusion (C-terminal peptide) (PSI (0-1 scale)); higher = more stable (slower turnover); settings: genetic background: wild type; temperature: 30 C
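Further: PSI is a weighted mean of sequencing reads over stability bins, variants kept only with over 10 reads, mCherry proximal and sfGFP distal, peptide attached via GGGS linker.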

Question: How did the protein stability index turn out when RSTPPHAHRSPP was run?
Answer: The protein stability index was 0.716 ± 0.015.

Question: How did the protein stability index turn out when PPLPPPTPLQCL was run?
Answer: The protein stability index was 0.696 ± 0.027.

Question: GFKMSMGCEQSS was tested. Which protein stability index did it give?
Answer: Its protein stability index is 0.722 ± 0.076.

Question: With VGTRVGCEAGVV as the sequence, how does the protein stability index read?
Answer: The protein stability index was 0.637 ± 0.095.

Question: With AFTPGTTVYVSQ as the sequence, how does the protein stability index read?
Answer: The protein stability index was 0.699 ± 0.037.

Question: How did the protein stability index turn out when SVYLIRSLEALR was run?
Answer: Its protein stability index is 0.679 ± 0.019.

Question: With LGVGGRWVVPGA as the sequence, how does the protein stability index read?
Answer: Its protein stability index is 0.722 ± 0.032.

Question: CGVGEGGLLGWL was tested. Which protein stability index did it give?
Answer: The protein stability index was 0.745 ± 0.072.

Question: With DGVGVPGCGRVG as the sequence, how does the protein stability index read?
Answer: Its protein stability index is 0.734 ± 0.075.

Question: Which protein stability index does the source give for GEQGVLARSDRI here?
Answer: The protein stability index was 0.589 ± 0.025.

Question: With GGWGRKCGGSGG as the sequence, how does the protein stability index read?
Answer: The protein stability index was 0.711 ± 0.018.

Question: With LGKSRVHLWTGT as the sequence, how does the protein stability index read?
Answer: Its protein stability index is 0.706 ± 0.04.

Question: Which protein stability index does the source give for ERKKIKDKIKKN here?
Answer: Its protein stability index is 0.702 ± 0.051.

Question: For AGWCKGMWVSLG, which protein stability index is on record?
Answer: The protein stability index was 0.656 ± 0.036.

Question: PGVIFRLPSCFV was tested. Which protein stability index did it give?
Answer: The protein stability index was 0.652 ± 0.061.

Question: With SLPPHPAPPPAA as the sequence, how does the protein stability index read?
Answer: Its protein stability index is 0.757 ± 0.014.

Question: With APSPLLPPHSPP as the sequence, how does the protein stability index read?
Answer: The protein stability index was 0.612 ± 0.043.

Question: How did the protein stability index turn out when PALPPRLPPPPL was run?
Answer: The protein stability index was 0.602 ± 0.019.

Question: How did the protein stability index turn out when TPLSSPHPSPPP was run?
Answer: Its protein stability index is 0.595 ± 0.045.

Question: EKCDYVIPVGLL was tested. Which protein stability index did it give?
Answer: The protein stability index was 0.702 ± 0.035.

Question: For GRLGSTRRPPSG, which protein stability index is on record?
Answer: Its protein stability index is 0.701 ± 0.0095.

Question: How did the protein stability index turn out when PHPNHRGPKGAN was run?
Answer: Its protein stability index is 0.686 ± 0.032.

Question: With FCNAVLSCFSIF as the sequence, how does the protein stability index read?
Answer: Its protein stability index is 0.597 ± 0.0068.

Question: With AQTRSVGWEFGY as the sequence, how does the protein stability index read?
Answer: Its protein stability index is 0.685 ± 0.0093.

Question: Which protein stability index does the source give for GAGFCSGLRGAG here?
Answer: Its protein stability index is 0.689 ± 0.088.

Question: For AFCFCIFSSFLV, which protein stability index is on record?
Answer: The protein stability index was 0.535 ± 0.021.

Question: For FYVTRIGPLDMS, which protein stability index is on record?
Answer: The protein stability index was 0.801 ± 0.023.

Question: For GLSGVVGSRCHC, which protein stability index is on record?
Answer: Its protein stability index is 0.713 ± 0.02.

Question: With WGGRSWGLRRGC as the sequence, how does the protein stability index read?
Answer: The protein stability index was 0.664 ± 0.028.

Question: For PDSAGAALSLSS, which protein stability index is on record?
Answer: Its protein stability index is 0.695 ± 0.027.

Question: With APPEAPQEPLTL as the sequence, how does the protein stability index read?
Answer: Its protein stability index is 0.727 ± 0.0092.

Question: TATPQRQPHKSP was tested. Which protein stability index did it give?
Answer: The protein stability index was 0.706 ± 0.013.

Question: Which protein stability index does the source give for PSSRSASSSSPA here?
Answer: Its protein stability index is 0.705 ± 0.043.

Question: Which protein stability index does the source give for GSQSPKEEYHES here?
Answer: Its protein stability index is 0.632 ± 0.045.

Question: How did the protein stability index turn out when FSVHVPPFPPVP was run?
Answer: Its protein stability index is 0.654 ± 0.038.

Question: Which protein stability index does the source give for PSLPFPPTPPPC here?
Answer: The protein stability index was 0.686 ± 0.11.

Question: For PLPPLPPPPPPP, which protein stability index is on record?
Answer: Its protein stability index is 0.639 ± 0.051.

Question: For TASLSPSHRFYS, which protein stability index is on record?
Answer: Its protein stability index is 0.66863 ± 0.00061.

Question: How did the protein stability index turn out when VGICCCKTYCCS was run?
Answer: The protein stability index was 0.656 ± 0.074.

Question: For PLPPPPTPPSLS, which protein stability index is on record?
Answer: The protein stability index was 0.716 ± 0.046.

Question: For ASSPPPRISAWL, which protein stability index is on record?
Answer: Its protein stability index is 0.7463 ± 0.0032.

Question: With GWGWDAVGVGGP as the sequence, how does the protein stability index read?
Answer: The protein stability index was 0.711 ± 0.0074.

Question: With DLPSSPCSYFRR as the sequence, how does the protein stability index read?
Answer: Its protein stability index is 0.616 ± 0.034.

Question: With LVRHCIPIIPPP as the sequence, how does the protein stability index read?
Answer: Its protein stability index is 0.638 ± 0.026.

Question: PPPSPPPPPSLP was tested. Which protein stability index did it give?
Answer: The protein stability index was 0.669 ± 0.019.

Question: How did the protein stability index turn out when VIDQRIDIAYFS was run?
Answer: Its protein stability index is 0.746 ± 0.1.

Question: With SQAFPPADLRPR as the sequence, how does the protein stability index read?
Answer: The protein stability index was 0.719 ± 0.058.

Question: How did the protein stability index turn out when RALPLLPLPRLS was run?
Answer: The protein stability index was 0.66 ± 0.024.

Question: With WLVRNVVGGGVC as the sequence, how does the protein stability index read?
Answer: Its protein stability index is 0.722 ± 0.061.

Question: PPAPSPPLPSLA was tested. Which protein stability index did it give?
Answer: Its protein stability index is 0.694 ± 0.037.

Question: How did the protein stability index turn out when AGWKGGTSRGER was run?
Answer: The protein stability index was 0.6618 ± 0.0053.

Question: How did the protein stability index turn out when EWQWGWGGVRRD was run?
Answer: Its protein stability index is 0.765 ± 0.032.

Question: Which protein stability index does the source give for FGCLGVLGAGRC here?
Answer: Its protein stability index is 0.713 ± 0.034.

Question: ALFNEVFRSLLL was tested. Which protein stability index did it give?
Answer: The protein stability index was 0.712 ± 0.054.

Question: With RALALVHRQRVG as the sequence, how does the protein stability index read?
Answer: Its protein stability index is 0.648 ± 0.096.

Question: VEGNLIYKKKYK was tested. Which protein stability index did it give?
Answer: The protein stability index was 0.656 ± 0.053.

Question: Which protein stability index does the source give for GVRRPYRSDLRL here?
Answer: Its protein stability index is 0.678 ± 0.023.

Question: GGGVGWWVSYVG was tested. Which protein stability index did it give?
Answer: Its protein stability index is 0.673 ± 0.012.

Question: Which protein stability index does the source give for FELYGVGLGTCA here?
Answer: Its protein stability index is 0.633 ± 0.17.

Question: For PLFSLRPSIPFS, which protein stability index is on record?
Answer: Its protein stability index is 0.72 ± 0.033.

Question: Which protein stability index does the source give for PLPPPPLAPPPP here?
Answer: Its protein stability index is 0.687 ± 0.014.

Question: IVSPSYGEGSIR was tested. Which protein stability index did it give?
Answer: Its protein stability index is 0.695 ± 0.026.

Question: With SIVSQGISDLGR as the sequence, how does the protein stability index read?
Answer: The protein stability index was 0.656 ± 0.046.

Question: Which protein stability index does the source give for PLPPPPPARLVP here?
Answer: The protein stability index was 0.649 ± 0.048.

Question: For CDLISNFFLIGV, which protein stability index is on record?
Answer: Its protein stability index is 0.633 ± 0.03.

Question: GLLSLPPRLPFL was tested. Which protein stability index did it give?
Answer: The protein stability index was 0.672 ± 0.073.

Question: For VGAGRGKWRGGG, which protein stability index is on record?
Answer: The protein stability index was 0.6591 ± 0.0013.

Question: Which protein stability index does the source give for PLPPFPPSPPFT here?
Answer: Its protein stability index is 0.684 ± 0.036.

Question: RLGGGGVGGAGV was tested. Which protein stability index did it give?
Answer: Its protein stability index is 0.699 ± 0.019.

Question: With PPPPPLYLPRFV as the sequence, how does the protein stability index read?
Answer: The protein stability index was 0.675 ± 0.056.

Question: With MQLREIIMIEKS as the sequence, how does the protein stability index read?
Answer: Its protein stability index is 0.693 ± 0.043.

Question: For PPSYYPPPYLAF, which protein stability index is on record?
Answer: The protein stability index was 0.653 ± 0.034.

Question: With PPLAPLPSAPLR as the sequence, how does the protein stability index read?
Answer: Its protein stability index is 0.674 ± 0.058.

Question: How did the protein stability index turn out when RGSTLPRRVRLK was run?
Answer: The protein stability index was 0.641 ± 0.042.

Question: With GSGTGRWPGYGS as the sequence, how does the protein stability index read?
Answer: Its protein stability index is 0.718 ± 0.088.

Question: For RRLGVACCVVEG, which protein stability index is on record?
Answer: Its protein stability index is 0.599 ± 0.0061.

Question: How did the protein stability index turn out when LRPTPLPRPSPA was run?
Answer: Its protein stability index is 0.691 ± 0.024.

Question: Which protein stability index does the source give for LVALCGYTLRLR here?
Answer: The protein stability index was 0.487 ± 0.076.

Question: GLKTLQTCRIIR was tested. Which protein stability index did it give?
Answer: The protein stability index was 0.691 ± 0.054.

Question: For PLSPPPRPPPSP, which protein stability index is on record?
Answer: Its protein stability index is 0.654 ± 0.066.

Question: For LPPSPRLSFSPP, which protein stability index is on record?
Answer: Its protein stability index is 0.701 ± 0.034.

Question: Which protein stability index does the source give for RPPSLSPAPAPP here?
Answer: Its protein stability index is 0.73 ± 0.027.

Question: For VVGSVPVSAFWE, which protein stability index is on record?
Answer: Its protein stability index is 0.746 ± 0.075.

Question: Which protein stability index does the source give for VGYGTGGAGGVE here?
Answer: Its protein stability index is 0.766 ± 0.044.

Question: With VVGSWGRGGCGG as the sequence, how does the protein stability index read?
Answer: The protein stability index was 0.639 ± 0.0017.

Question: LPSAPLLPLLRP was tested. Which protein stability index did it give?
Answer: Its protein stability index is 0.68 ± 0.041.

Question: With PPAPTHSAPSQI as the sequence, how does the protein stability index read?
Answer: Its protein stability index is 0.655 ± 0.07.

Question: Which protein stability index does the source give for KRVTYKRIRSKI here?
Answer: Its protein stability index is 0.799 ± 0.029.

Question: How did the protein stability index turn out when CPPSPSPPLPPL was run?
Answer: Its protein stability index is 0.712 ± 0.0085.

Question: With DLDVVGEGSAGT as the sequence, how does the protein stability index read?
Answer: Its protein stability index is 0.683 ± 0.046.

Question: Which protein stability index does the source give for PSPIHSRQTQWF here?
Answer: The protein stability index was 0.707 ± 0.015.

Question: Which protein stability index does the source give for WSLPILPPPSPD here?
Answer: The protein stability index was 0.663 ± 0.032.

Question: How did the protein stability index turn out when GGGGAGGGGGRV was run?
Answer: Its protein stability index is 0.676 ± 0.038.

Question: How did the protein stability index turn out when KKKNKEKSKKKK was run?
Answer: Its protein stability index is 0.761 ± 0.05.

Question: For SGAGGGGWWGGV, which protein stability index is on record?
Answer: The protein stability index was 0.731 ± 0.011.

Question: How did the protein stability index turn out when CGMIQDKCEGEI was run?
Answer: The protein stability index was 0.738 ± 0.049.

Question: GGGSITTFIGDE was tested. Which protein stability index did it give?
Answer: The protein stability index was 0.695 ± 0.018.

Question: With SFCACDRYRIGV as the sequence, how does the protein stability index read?
Answer: The protein stability index was 0.727 ± 0.038.

Question: With SLPDSLPRPPPS as the sequence, how does the protein stability index read?
Answer: The protein stability index was 0.656 ± 0.072.

Question: VHWAALRSVLRG was tested. Which protein stability index did it give?
Answer: Its protein stability index is 0.699 ± 0.047.

Question: How did the protein stability index turn out when CLSFCFGISVFD was run?
Answer: Its protein stability index is 0.616 ± 0.017.
